We go through four substances from patent publication US20220106400A1.

The EC50 is the concentration needed to bring the measured effect to its halfway point. High values mean lower potency in that assay, low ones higher potency in that assay.

Experiment [1] addresses hCD64 (FcgRI) (human) (UniProt P12314). Briefly: told in the description as a result of the Examples; method not given.
For experiment [2], the target named is human GITR on activated human CD4 T cells (human) (UniProt Q9Y5U5). In words: FACS binding to anti-CD3/CD28-activated human CD4 T cells.
Experiment [3] addresses hCD64 (FcgRI) (human) (UniProt P12314). In words: FcR binding, Example 16.

human GITR on activated human CD4 T cells (human), sequence (Q9Y5U5 26-241): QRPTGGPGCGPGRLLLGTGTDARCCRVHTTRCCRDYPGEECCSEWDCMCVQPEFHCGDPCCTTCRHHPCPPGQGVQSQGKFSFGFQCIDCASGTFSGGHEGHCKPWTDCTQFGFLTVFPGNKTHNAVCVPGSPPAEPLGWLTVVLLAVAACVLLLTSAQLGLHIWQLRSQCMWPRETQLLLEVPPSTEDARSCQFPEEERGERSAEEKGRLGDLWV
hCD64 (FcgRI) (human), sequence (P12314 16-288 limits assumed): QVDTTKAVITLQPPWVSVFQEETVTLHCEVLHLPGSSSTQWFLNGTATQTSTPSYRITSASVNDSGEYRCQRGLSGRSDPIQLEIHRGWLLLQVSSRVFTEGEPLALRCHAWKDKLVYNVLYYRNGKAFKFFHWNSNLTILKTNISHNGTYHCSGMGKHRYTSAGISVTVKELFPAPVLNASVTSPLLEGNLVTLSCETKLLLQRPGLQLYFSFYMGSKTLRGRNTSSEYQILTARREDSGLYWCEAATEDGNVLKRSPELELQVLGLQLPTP

In experiment [1], antibody with IgG1 P238K (Example 13) had a fold reduction of binding relative to wildtype IgG1 of 100 fold. unrelated hIgG2 yielded an EC50 in experiment [2] of 6.72 nM.

In experiment [3], “antibody with IgG1f-L235E-P238K heavy chain constant domain (Example 16)” yielded a fold reduction of CD64 binding against P238K alone of 1000 fold. unrelated hIgG1 showed a concentration giving a half-maximal response (EC50) in experiment [2] of 132 nM.
